Values joined by “and” are separate entries in the source; they are usually repeats but may differ in a detail not shown here. Equal values may be shown once. Read-outs that look alike come from different tables or passages of the source.
Tests used:
[1] = target: GRPEL2, human, recombinant, without mitochondrial targeting sequence, His tag kept (human) (UniProt Q8TAA5); experiment: SEC-MALS
[2] = target: GRPEL1, human, recombinant, without mitochondrial targeting sequence, His tag kept (human) (UniProt Q9HAV7); experiment: SEC-MALS
[3] = target: mitochondrial HSP70 (mtHSP70), human, recombinant, His-tagged (human) (UniProt P38646); experiment: SEC-MALS
[4] = target: mitochondrial HSP70 (mtHSP70), human, recombinant, His-tagged (human) (UniProt P38646); experiment: MST
[5] = target: mitochondrial HSP70 (mtHSP70), human, recombinant, His-tagged (human) (UniProt P38646); experiment: MST; remark: listed apart in the source
[6] = target: mitochondrial HSP70 (mtHSP70), human, recombinant, His-tagged (human) (UniProt P38646); experiment: MST; remark: listed apart in the source
[7] = target: the molecule itself; experiment: SEC-MALS

Row | Molecule | Kd [4] | Kd [5] | stoichiometry N [7] | other results
1 | GRPEL2, human, recombinant, without mitochondrial targeting sequence, His tag kept (from UniProt Q8TAA5 33-225) (natural protein) |  |  |  | stoichiometry N [1]: 2 and 4
2 | GRPEL1, human, recombinant, without mitochondrial targeting sequence, His tag kept (from UniProt Q9HAV7 28-217) (natural protein) |  |  |  | stoichiometry N [2]: 2 and 4; stoichiometry N (GRPEL1 per mtHSP70 (2:1 complex)) [3]: 2; stoichiometry N (GRPEL1 per mtHSP70 (2:2 complex)) [3]: 1
3 | GRPEL2, human, recombinant, without mitochondrial targeting sequence, His tag cleaved at the TEV site (natural protein) STATQRTAGEDCRSEDPPDELGPPLAERALRVKAVKLEKEVQDLTVRYQRAIADCENIRRRTQRCVEDAKIFGIQSFCKDLVEVADILEKTTECISEESEPEDQKLTLEKVFRGLLLLEAKLKSVFAKHGLEKLTPIGDKYDPHEHELICHVPAGVGVQPGTVALVRQDGYKLHGRTIRLARVEVAVESQRRL | 942 nM | 373 nM |  | Kd [6]: 152 nM
4 | GRPEL2-C87A, human, recombinant, without mitochondrial targeting sequence, His tag kept (natural protein, UniProt Q8TAA5 33-225, looked up) STATQRTAGEDCRSEDPPDELGPPLAERALRVKAVKLEKEVQDLTVRYQRAIADAENIRRRTQRCVEDAKIFGIQSFCKDLVEVADILEKTTECISEESEPEDQKLTLEKVFRGLLLLEAKLKSVFAKHGLEKLTPIGDKYDPHEHELICHVPAGVGVQPGTVALVRQDGYKLHGRTIRLARVEVAVESQRRL | 204 nM | 203 nM | 2 and 4 | 
5 | GRPEL2-C97A, human, recombinant, without mitochondrial targeting sequence, His tag kept (natural protein, UniProt Q8TAA5 33-225, looked up) STATQRTAGEDCRSEDPPDELGPPLAERALRVKAVKLEKEVQDLTVRYQRAIADCENIRRRTQRAVEDAKIFGIQSFCKDLVEVADILEKTTECISEESEPEDQKLTLEKVFRGLLLLEAKLKSVFAKHGLEKLTPIGDKYDPHEHELICHVPAGVGVQPGTVALVRQDGYKLHGRTIRLARVEVAVESQRRL |  | 457 nM | 2 and 4 | 

Reference: paper PMC11500471 (Protein Science : A Publication of the Protein Society, 2024)
